# Patent publication KR20230087219A (dated 2023)
# Positions count from the first letter of the chain named.
# B1: 54G10 (antibody, V domains shown)
# VH: EVTLKVCGPGILQPSQTLSLTCSFSGFSLSTSGMGVGWIRQPSGKGLEWLAHIWWDDVKRYNPALKSRLTISKDTSSSQVFLKIASVDTADTATYYCARYYRYDVRWGQGTLVTVSA
# VL: DIVMTQTPKFLLVSAGDRVTITCKASQSVSNDVAWYQQKPGQSPTLLIYSASNRYTGVPDRFTGSGYGTDFTFTISTVQAEDLAVYFCQQDYSSPLTFGAGTKLELK
# notes: also called monoclonal antibody 54G10
# B2: 79C12 (antibody, V domains shown)
# VH: EVKLEESGGGLVQPGGSMKLSCVASGFTFSDYWMNWVRQSPEKGLEWVAEIRLKSNNYATHYAESVKGRFTISRDDSKSSVYLQMNNLRAEDTGIYYCTRAAMDYWGQGTSVTVSS
# VL: not shown
# notes: also called monoclonal antibody 79C12
# B3: 54G6 (antibody, V domains shown)
# VH: B2 VH with K3Q, L4G, E5V, V23A, A49G, V81I, Y82H, A101Y, S111T
# VL: GIVMTQSPSSLAVSPGEKVTMSCKSSQSLLNSRTRKNHLAWYQQKPGQSPKLLIYWASTKDSGVPDRFTGSGSGTDFTLTISSVQAEDLAVYYCKQSYNLFTFGSGTKLEIK
# notes: also called monoclonal antibody 54G6
# Target: T1, MERS-CoV nucleocapsid protein (Sino Biological Cat. No. 40068V08B) (MERS-CoV, UniProt K9N4V7 1-411)
# T1 construct: also called MERS-CoV NP; MERS NP
# Test: indirect LFIA, NP fixed on nitrocellulose, hybridoma culture medium
row,Binder,binding result
1,B1,no binding
2,B2,no binding
3,B3,no binding

# Target: T2, SARS-CoV nucleocapsid protein (Sino Biological Cat. No. 40143-V08B) (SARS-CoV, UniProt P59595 1-422)
# T2 construct: also called SARS-CoV NP
# Test: as above
row,Binder,binding result
1,B1,no binding
2,B2,no binding
3,B3,no binding
